According to patent publication US20090208538A1 (ROCKEFELLER UNIVERSITY, published 2009):

Key:
[1] = target: HLA-B*0702 (human); experiment: iTopia net score
[2] = target: HLA-B*0702 (human); experiment: iTopia off-rate
[3] = target: HLA-B*0702 (human); experiment: iTopia affinity
[4] = target: HLA-A*1101 (human); experiment: iTopia net score
[5] = target: HLA-A*1101 (human); experiment: iTopia off-rate
[6] = target: HLA-A*1101 (human); experiment: iTopia affinity;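 also: affinity derived from a titration of eight serial peptide dilutions, each run under the same conditions as the binding screen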
[7] = target: HLA-A*2402 (human); experiment: iTopia off-rate
[8] = target: HLA-A*2402 (human); experiment: iTopia net score;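 also: iScore from iTopia software combining peptide binding, affinity over a dilution series and off-rate after warming to body temperature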
[9] = target: HLA-A*2402 (human); experiment: iTopia affinity;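 also: peptide binding to HLA-A*2402 measured in iTopia kit format across eight serial peptide dilutions, ED50 derived from the resulting titration curve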
[10] = target: T1, HLA-A*0201 (human); experiment: iTopia affinity;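 also: peptide affinity for plate-bound HLA-A2 molecules (iTopia system), with ED50 derived from an eight-point serial peptide dilution series run under binding assay conditions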
T1 construct: also called HLA-A2.1; HLA A2.1

[11] = target: T1, HLA-A*0201; experiment: iTopia binding;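 also: each peptide tested for binding to HLA-A2 molecules immobilized on plates, using a commercial screening kit run per its supplied protocol and reagents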
[12] = target: T1, HLA-A*0201; experiment: iTopia net score;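 also: combined score from peptide binding, ED₅₀ and half-life of peptide complexes with plate-bound HLA-A2 molecules, computed by a proprietary formula in iTopia software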
[13] = target: T1, HLA-A*0201; experiment: iTopia off-rate;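 also: Half-life of peptide complexes with plate-bound HLA-A2, peptides loaded 18 h at 21 C, washed, then held at 37 C over several time points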

| Binder | iScore [1] | t1/2 [2] | ED50 [3] [µM] | iScore [4] | t1/2 [5] | ED50 [6] [µM] | other results |
| --- | --- | --- | --- | --- | --- | --- | --- |
| ENSELEQQL [cdr2 229-237 ENSELEQQL] | 0.05 | 1.13 | 93 | – | – | – | – |
| ADSKASQQK [cdr2 103-111 ADSKASQQK] | – | – | – | 0.054 | 0.51 | 56 | – |
| EVAEMRQML [cdr2 253-261 EVAEMRQML] | 0.077 | 0.74 | 18 | – | – | – | – |
| KQVELLRQM [cdr2 68-76 KQVELLRQM] | 0.055 | 1.15 | 180 | – | – | – | – |
| LAAELGKTL [cdr2 30-38 LAAELGKTL] | 0.052 | 0.5 | 33 | – | – | – | – |
| KPAPSFACL [cdr2 153-161 KPAPSFACL] | 0.205 | 1.29 | 5.5 | – | – | – | – |
| TVTMLQAQL [cdr2 201-209 TVTMLQAQL] | – | – | – | – | – | – | t1/2 [7]: 0.59; ED50 [10]: 3 µM; binding vs positive control [11]: > 30%; iScore [12]: 0.132; iScore [8]: 0.062; ED50 [9]: 43 µM; t1/2 [13]: 0.6 |
| LQSQVEELK [cdr2 129-137 LQSQVEELK] | – | – | – | 0.103 | 1.1 | 24 | – |
| LQEIEYLTK [cdr2 60-68 LQEIEYLTK] | – | – | – | 0.048 | 0.68 | 62 | – |
| ECLQTNIDH [cdr2 120-128 ECLQTNIDH] | – | – | – | – | – | – | t1/2 [7]: 0.72; ED50 [10]: 30 µM; binding vs positive control [11]: > 30%; iScore [12]: 0.178; iScore [8]: 0.095; ED50 [9]: 18 µM; t1/2 [13]: 5.4 |
| LTKQVELLR [cdr2 66-74 LTKQVELLR] | – | – | – | 0.238 | 1.56 | 7.9 | – |
| GATGAYRAR [cdr2 238-246 GATGAYRAR] | – | – | – | 0.056 | 0.3 | 19 | – |

Second part, led by results:

| iScore [1] | t1/2 [2] | ED50 [3] [µM] | iScore [4] | t1/2 [5] | ED50 [6] [µM] | Binder | other results |
| --- | --- | --- | --- | --- | --- | --- | --- |
| 0.22 | 1.33 | 9.9 | – | – | – | VPESHRKPL [cdr2 298-306 VPESHRKPL] | – |
| – | – | – | 0.063 | 0.41 | 25 | PDSLYVPFK [cdr2 276-284 PDSLYVPFK] | – |
| – | – | – | 0.088 | 0.92 | 12 | IFSCIKKTK [cdr2 429-437 IFSCIKKTK] | t1/2 [7]: 1.16; iScore [8]: 0.108; ED50 [9]: 8.6 µM |
| – | – | – | 0.059 | 0.8 | 31 | SGWELASVN [cdr2 401-409 SGWELASVN] | – |
| – | – | – | 0.22 | 2.26 | 1.2 | KVKYEELLK [cdr2 357-365 KVKYEELLK] | – |
| 0.067 | 1.19 | 18 | – | – | – | TSRAAAKDL [cdr2 381-389 TSRAAAKDL] | – |
| – | – | – | 0.058 | 0.31 | 26 | PPEYKALFK [cdr2 419-427 PPEYKALFK] | – |
| 0.031 | 1.83 | 73 | – | – | – | RTKYRSLSS [cdr2 444-452 RTKYRSLSS] | – |
| – | – | – | 0.136 | 1.78 | 20 | SPTTPPEYK [cdr2 415-423 SPTTPPEYK] | – |
